Data set [1] deals with T1, U2AF65 WT (human, UniProt P26368 1-475). As to the kind of experiment: EMSA; Kd shown only in figure; 0.13-4.2 uM protein; similar affinity to can probe; EMSA: 40 mM Tris pH 8.0, 5 mM MgCl2, 0.25 ug/uL heparin, 0.01% Triton, 1 mM DTT, room temperature 20 min; 6% native PAGE in 0.5x TBE at 4 C; 15-17 nM biotin-RNA. The conditions noted are these: protein: recombinant; tags: N-terminal GST (pGEX6P, eluted with glutathione); label: 5' biotin; single strand.

Data set [2] deals with T2, PUF60 WT (human, UniProt Q9UHX1 1-559). The data set is described as follows: EMSA; Kd only in figure; Hill 3.0; similar affinity to can probe; EMSA: 40 mM Tris pH 8.0, 5 mM MgCl2, 0.25 ug/uL heparin, 0.01% Triton, 1 mM DTT, room temperature 20 min; 6% native PAGE in 0.5x TBE at 4 C; 15-17 nM biotin-RNA. The note with it: protein: recombinant; tags: 2xHis-lipoyl-TEV, removed by TEV; label: 5' biotin; single strand.
T2 sequence (Q9UHX1 whole entry): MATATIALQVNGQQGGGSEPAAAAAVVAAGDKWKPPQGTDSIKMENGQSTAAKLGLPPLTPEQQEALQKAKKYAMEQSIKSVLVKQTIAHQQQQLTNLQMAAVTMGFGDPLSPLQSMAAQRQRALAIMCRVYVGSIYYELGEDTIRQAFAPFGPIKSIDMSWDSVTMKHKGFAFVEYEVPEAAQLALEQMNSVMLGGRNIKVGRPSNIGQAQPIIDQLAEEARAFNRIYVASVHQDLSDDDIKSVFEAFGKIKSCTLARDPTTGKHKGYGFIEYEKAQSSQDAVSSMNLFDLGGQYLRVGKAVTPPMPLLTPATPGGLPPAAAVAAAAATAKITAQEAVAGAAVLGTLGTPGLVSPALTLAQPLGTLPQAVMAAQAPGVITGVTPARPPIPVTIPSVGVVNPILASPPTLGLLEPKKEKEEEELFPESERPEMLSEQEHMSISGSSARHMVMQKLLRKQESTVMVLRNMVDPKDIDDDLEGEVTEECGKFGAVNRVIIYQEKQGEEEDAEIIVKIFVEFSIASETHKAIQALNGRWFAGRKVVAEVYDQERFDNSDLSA

For data set [3], the target named is T2, PUF60 WT. The data set is described as follows: EMSA; strong binding; 0.14-1.25 uM protein, 15 nM RNA; EMSA: 40 mM Tris pH 8.0, 5 mM MgCl2, 0.25 ug/uL heparin, 0.01% Triton, 1 mM DTT, room temperature 20 min; 6% native PAGE in 0.5x TBE at 4 C; 15-17 nM biotin-RNA. The note with it: protein: recombinant; tags: 2xHis-lipoyl-TEV, removed by TEV; label: 5' biotin; single strand.

Data set [4] addresses T1, U2AF65 WT. The data set is described as follows: EMSA; Kd shown only in figure; 0.13-4.2 uM protein; similar affinity to cr probe; EMSA: 40 mM Tris pH 8.0, 5 mM MgCl2, 0.25 ug/uL heparin, 0.01% Triton, 1 mM DTT, room temperature 20 min; 6% native PAGE in 0.5x TBE at 4 C; 15-17 nM biotin-RNA. The note with it: protein: recombinant; tags: N-terminal GST (pGEX6P, eluted with glutathione); label: 5' biotin; single strand.

Data set [5] concerns the target T2, PUF60 WT. The data set is described as follows: EMSA; Kd only in figure; Hill 2.6; similar affinity to cr probe; EMSA: 40 mM Tris pH 8.0, 5 mM MgCl2, 0.25 ug/uL heparin, 0.01% Triton, 1 mM DTT, room temperature 20 min; 6% native PAGE in 0.5x TBE at 4 C; 15-17 nM biotin-RNA. The note with it: protein: recombinant; tags: 2xHis-lipoyl-TEV, removed by TEV; label: 5' biotin; single strand.

The text below walks through data of paper PMC7408900, “Cancer-Associated Substitutions in RNA Recognition Motifs of PUF60 and U2AF65 Reveal Residues Required for Correct Folding and 3′ Splice-Site Selection”.

T1 sequence (P26368 whole entry, one chain of several): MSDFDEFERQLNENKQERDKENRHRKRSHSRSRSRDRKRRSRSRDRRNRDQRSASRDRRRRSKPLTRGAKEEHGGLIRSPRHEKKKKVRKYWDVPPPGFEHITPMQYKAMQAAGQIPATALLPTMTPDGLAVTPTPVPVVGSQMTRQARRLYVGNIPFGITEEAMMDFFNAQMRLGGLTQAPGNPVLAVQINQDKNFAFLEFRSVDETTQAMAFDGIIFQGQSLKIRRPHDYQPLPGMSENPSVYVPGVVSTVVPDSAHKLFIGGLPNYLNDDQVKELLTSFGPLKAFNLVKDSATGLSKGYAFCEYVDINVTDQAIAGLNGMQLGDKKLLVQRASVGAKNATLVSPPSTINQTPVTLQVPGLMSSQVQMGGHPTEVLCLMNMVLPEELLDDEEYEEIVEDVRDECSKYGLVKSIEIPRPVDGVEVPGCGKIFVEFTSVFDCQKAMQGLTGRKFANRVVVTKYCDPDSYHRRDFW

CUUUUUGUUUCCUUUUUUUUUUAAUUUAAAGG (ssRNA) [UBE2F-cr3'ss-32]: the binding result in data set [1] and in data set [2] was “binds” each time. In the case of UUCGUGCUGACCUGUCCCUUUUUUUUCCACAGC (ssRNA) [AdML], the binding result in data set [3] is “binds”. For the molecule UUUUUUUGUUUUGUUUUGUGUUUUUUGAUAGA (ssRNA) [UBE2F-can3'ss-32], the binding result in data set [4] and in data set [5] was “binds” each time.
